Results taken from the supplement of paper PMC12667976.

B1: library; numbered along this chain (parent)
chain: MATDAALRRLLRLHRTEIAVAVDSAFPLLHALADHDVVPEDKFQETLHLKEKEGCPQAFHALLSWLLTQDSTAILDFWRVLFKDYNLERYGRLQPILDSFPKDVDLSQPRKGRKPPAVPKALVPPPRLPTKRKASEEARAAAPAALTPRGTASPGSQLKAKPPKKPESSAEQQRLPLGNGIQTMSASVQRAVAMSSGDVPGARGAVEGILIQQVFESGGSKKCIQVGGEFYTPSKFEDSGSGKNKARSSSGPKPLVRAKGAQGAAPGGGEARLGQQGSVPAPLALPSDPQLHQKNEDECAVCRDGGELICCDGCPRAFHLACLSPPLREIPSGTWRCSSCLQATVQEVQPRAEEPRPQEPPVETPLPPGLRSAGEEVRGPPGEPLAGMDTTLVYKHLPAPPSAAPLPGLDSSALHPLLCVGPEGQQNLAPGARCGVCGDGTDVLRCTHCAAAFHWRCHFPAGTSRPGTGLRCRSCSGDVTPAPVEGVLAPSPARLAPGPAKDDTASHEPALHRDDLESLLSEHTFDGILQWAIQSMARPAAPFPS

Variants of: B1
Assay: AIRE transcriptional activation functional score (insulin promoter-GFP; nonsense median 0, synonymous median 1) (normalised score); higher = higher AIRE activity (more reporter activation)
Conditions: with insulin promoter-GFP reporter in HEK293
Method in brief: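 Flp-In T-REx HEK293 landing-pad cells carrying an insulin core promoter-GFP reporter received codon-optimized AIRE NNN-codon libraries (three regions) through Bxb1 recombinase. Sorting of mCherry+, BFP− integrants took place at day 7, followed by 7 days of expansion and tile-sequencing of top 10% GFP and unselected integrant populations. A functional score was derived from select versus non-select variant enrichment with wild type subtracted. Values from variants reaching 10 counts per million in non-select were set to nonsense median 0 and synonymous median 1 and averaged over biological replicates.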

AIRE transcriptional activation functional score of substitutions, site by site:
G379: E 1 | A 0.877 | L 1.41 | R 0.719 | I 1.26 | S 1.37 | P 0.992 | K 1.19 | T 0.911 | N 1.23 | D 1.24 | C 0.863 | Y 1.47 | W 1.23 | V 0.691
H396: T 0.549 | N 1.09 | V 1.25 | I 1.17 | D 0.156 | F 1.15 | W 1.28 | G 0.899 | P 1.02 | L 1.69 | C 1.33 | S 0.606 | Y 1.44 | Q 1.12 | R 1.03 | E -0.185 | A 0.663 | K 1.61
R378: P 0.932 | Q 0.825 | E 0.928 | F 1.1 | T 0.986 | N 1.28 | S 0.975 | V 0.869 | M 0.0153 | H 0.92 | Y 0.657 | G 0.98 | I 0.795 | A 0.851 | L 0.904 | D 0.631 | K 1.17 | C 0.601
G382: P 0.74 | N 0.95 | Q 1.24 | D 0.898 | E 1.19 | V 1.22 | L 0.669 | K 0.449 | F 1.11 | T 0.841 | R 1.03 | W 1.38 | S 0.979 | H 1.29 | A 0.906 | C 0.802 | I 0.702 | Y 1.13
P384: K 0.962 | A 0.99 | T 1.17 | L 1.14 | H 1.05 | R 1.19 | S 0.379 | M 1.35 | W 1.61 | Q 1.01 | V 0.849 | G 1.62 | N 0.179 | I 0.998 | E 1.39
M388: R 0.983 | I 0.924 | V 1.49 | N 0.557 | E 0.756 | D 0.8 | S 0.824 | T 0.897 | C 0.979 | Y -0.0355 | H 1.2 | G 0.832 | P 1.14 | K 1.05 | Q 0.232 | L 1.17 | W 1.46 | F 1.15 | A 0.871
G387: W 1.52 | I 1.59 | Y 1.72 | K 0.344 | S 0.84 | V 1.5 | A 1.19 | P 0.291 | F 1.52 | T 1.22 | R 1.1 | C 0.799 | L 1.35
K395: N 0.081 | C 0.49 | E 0.701 | V 1.34 | H 0.628 | M 2.5 | Q 1.35 | S 0.558 | I 0.422 | R -0.166 | W 0.234 | A 0.786 | Y 1.47 | F 0.828 | T 0.901 | D 0.353 | L 1.38
E383: T 1.49 | L 1.22 | H 0.859 | F 1.58 | R 1.05 | S 1.01 | I 0.922 | Y 1.27 | D 0.97 | V 1.13 | Q 0.74 | K 0.473 | G 1.09 | P 0.887 | A 1.32 | W 0.951 | M 0.564 | C 1.18
D389: F 0.472 | W 0.0908 | M -0.143 | G 0.913 | H 1.2 | A 1.04 | K 0.278 | I -0.197 | V 0.292 | C 0.869 | Y 0.964 | R 0.387 | L 0.218 | T 1.23 | E 0.728 | S 1.24 | Q -0.15 | P 0.951 | N 1.22
A386: Q 0.654 | T 1.02 | Y 1.55 | I 0.514 | K 1.1 | S 0.756 | L 1.36 | G 0.732 | H 1.44 | C 0.57 | R 1.1 | N 0.757 | P 0.921 | W 1.47 | V 0.968 | D 0.793 | M 1.53 | E 1.21 | F 1.74
T391: M 1.02 | P 0.882 | K 0.54 | F 1.41 | Y 1.45 | E 0.539 | C 0.542 | A 1.09 | H 1.17 | V 1.16 | Q 0.725 | D 0.889 | L 1.06 | S 0.957 | R 1.15 | I 1.29 | G 0.941 | W 1.58
L392: G 0.912 | I 1.7 | S 1.43 | R 1.06 | N 0.909 | V 1.36 | F 1.15 | T 0.53 | A 0.196 | Q 1.18 | E 0.303 | W 1.22 | M 0.734 | K 1.14 | H 0.636 | P 0.582
L385: T 0.874 | V 0.955 | I 0.603 | G 1 | Y 1.34 | H 1.13 | A 0.341 | S 0.77 | P 0.451 | W 1.56 | R 0.699 | C 1.42 | K 0.616 | Q 1.24 | N 0.689 | E 1.15 | F 0.899 | D -0.182
L397: C 0.827 | A 0.914 | E 0.622 | D 0.808
T390: L 1.23 | A 0.741 | C 0.472 | E -0.73 | I 0.876 | P 0.842 | R 1.02 | Q 0.868 | V 1.25 | F 1.29 | W 1.51 | D 0.833 | S 0.817 | Y 1.62 | G 1.17 | N 1.09 | K 1.1
P380: W 1.39 | V 0.912 | T 1.45 | I 1.14 | A 0.626 | S 0.998 | E 0.934 | K 0.944 | H 0.534 | G 0.801 | Q 1.16 | M 1.34 | L 0.882 | C 0.499 | N 1.52 | D 0.476 | R 0.936 | Y 1.42 | F 0.369
V393: D 0.48 | M 0.98 | G 1.28 | Q -0.242 | A 1.04 | P 0.254 | R 0.0991 | L 1.2 | S 0.746 | C 1.11 | Y 0.561 | E 0.991 | W 1.67 | N 1.09 | T 1.14
Y394: R 0.595 | P 1.43 | M 1.13 | L 1.07 | I 0.972 | C 0.576 | A 0.692 | H 0.428 | G 0.882 | E 0.49 | W 0.755 | S 0.848 | N 0.966 | F 0.973 | T 0.126 | D 0.711 | V 0.926 | Q -0.333 | K 0.301
P381: Y 1.39 | L 1.13 | V 1.15 | C 0.894 | G 1.11 | F 1.15 | E 1.26 | M 1.06 | A 0.912 | K 1.04 | H 1.03 | W 0.42 | Q 1.35 | I 0.705 | N 1.07 | D 0.696 | S 0.87 | T 0.929 | R 1.25
